Assay results from patent US20140336202.

Target: recombinant PP5 (UniProt P53041)
Sequence (P53041 whole entry): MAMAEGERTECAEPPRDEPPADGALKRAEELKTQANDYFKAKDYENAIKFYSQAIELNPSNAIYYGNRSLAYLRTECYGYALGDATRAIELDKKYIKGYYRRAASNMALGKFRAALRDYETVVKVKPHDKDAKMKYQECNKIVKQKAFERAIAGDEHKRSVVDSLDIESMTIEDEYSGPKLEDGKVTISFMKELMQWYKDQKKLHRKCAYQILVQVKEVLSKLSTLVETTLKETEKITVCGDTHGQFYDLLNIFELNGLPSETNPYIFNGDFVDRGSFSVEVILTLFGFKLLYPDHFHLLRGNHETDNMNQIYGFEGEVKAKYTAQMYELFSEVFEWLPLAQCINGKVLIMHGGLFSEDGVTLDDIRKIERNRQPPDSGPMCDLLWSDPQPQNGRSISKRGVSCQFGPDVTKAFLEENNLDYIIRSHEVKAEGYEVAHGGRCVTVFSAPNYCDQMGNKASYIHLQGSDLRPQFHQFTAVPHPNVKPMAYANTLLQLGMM

Substance	in vitro ubiquitylation of PP5 (immunoblot for PP5)
recombinant Huwe1 C4341S mutant (Huwe1 C/S)	wild type recombinant Huwe1 protein, but not Huwe1(C/S), ubiquitylated recombinant PP5 in vitro
recombinant Huwe1 wild type	in the presence of both E1 and E2, wild type recombinant Huwe1 protein, but not Huwe1(C/S), ubiquitylated recombinant PP5 in vitro
